The record followed here is PMC6449345.

Assay [1] deals with S. cerevisiae RNA polymerase II (Pol II), stalled elongation complex on DNA with nascent RNA (S. cerevisiae) (UniProt P16370).
The target is the same in assay [2]. The source holds these as a separate data set.

UniProt P16370, sequence (P16370 whole entry, looked up, one chain of several): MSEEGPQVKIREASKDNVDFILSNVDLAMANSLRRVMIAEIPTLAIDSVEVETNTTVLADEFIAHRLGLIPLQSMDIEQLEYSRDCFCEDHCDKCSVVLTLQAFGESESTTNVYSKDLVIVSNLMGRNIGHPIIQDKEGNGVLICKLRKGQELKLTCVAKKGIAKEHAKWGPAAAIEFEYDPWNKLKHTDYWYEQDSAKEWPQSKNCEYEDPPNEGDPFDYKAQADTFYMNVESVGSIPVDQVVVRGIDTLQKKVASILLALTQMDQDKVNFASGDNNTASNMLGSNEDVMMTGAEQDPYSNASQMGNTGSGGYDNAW

B1: Sen1 helicase domain (Sen1 HD, 1095–1904) (domain or fragment)
chain: AELAKQELEHMRKRLNVDMNPLYEIILQWDYTRNSEYPDDEPIGNYSDVKDFFNSPADYQKVMKPLLLLESWQGLCSSRDREDYKPFSIIVGNRTAVSDFYDVYASVAKQVIQDCGISESDLIVMAYLPDFRPDKRLSSDDFKKAQHTCLAKVRTLKNTKGGNVDVTLRIHRNHSFSKFLTLRSEIYCVKVMQMTTIEREYSTLEGLEYYDLVGQILQAKPSPPVNVDAAEIETVKKSYKLNTSQAEAIVNSVSKEGFSLIQGPPGTGKTKTILGIIGYFLSTKNASSSNVIKVPLEKNSSNTEQLLKKQKILICAPSNAAVDEICLRLKSGVYDKQGHQFKPQLVRVGRSDVVNVAIKDLTLEELVDKRIGERNYEIRTDPELERKFNNAVTKRRELRGKLDSESGNPESPMSTEDISKLQLKIRELSKIINELGRDRDEMREKNSVNYRNRDLDRRNAQAHILAVSDIICSTLSGSAHDVLATMGIKFDTVIIDEACQCTELSSIIPLRYGGKRCIMVGDPNQLPPTVLSGAASNFKYNQSLFVRMEKNSSPYLLDVQYRMHPSISKFPSSEFYQGRLKDGPGMDILNKRPWHQLEPLAPYKFFDIISGRQEQNAKTMSYTNMEEIRVAIELVDYLFRKFDNKIDFTGKIGIISPYREQMQKMRKEFARYFGGMINKSIDFNTIDGFQGQEKEIILISCVRADDTKSSVGFLKDFRRMNVALTRAKTSIWVLGHQRSLAKSKLWRDLIEDAKDRSCLAYACSGFLDPRNNRAQSILRKFNVPVPSEQEDDYKLPMEYITQGPDEVKSN
In assay [1], B1 displayed a k−1, rate of unbinding of Sen1 HD from the stalled elongation complex; the same fit of 0.0719 s⁻¹. Further, in assay [2], the Km of formation of the intermediate (Sen1·sEC)'; Michaelis-Menten fit of t1, the lifetime before the intermediate forms was 0.096 nM; the Km of removal of stalled Pol II by Sen1 HD (10-100 pM); Michaelis-Menten fit of the mean total lifetime (t total) of the transcription bubble; magnetic-trap DNA supercoiling assay, 1 mM ATP, 28 °C was determined as 70 pM; the Km of removal of stalled Pol II by Sen1 HD; Michaelis-Menten fit of t total, corrected for the stalling rate ks came out at 0.083 nM; the Km of removal of stalled Pol II by Sen1 HD; single-molecule Michaelis-Menten global fit of t total distributions (from k1, k-1 and kCAT) was determined as 0.041 nM. In addition, in assay [2], the k1, rate of binding of Sen1 HD to the stalled elongation complex; single-molecule Michaelis-Menten global fit of t total distributions, kCAT constrained came to 2.18e+09 M⁻¹ s⁻¹ and the k−1, rate of unbinding of Sen1 HD from the stalled elongation complex; single-molecule Michaelis-Menten global fit of t total distributions, kCAT constrained turned out to be 0.0725 s⁻¹.
